In patent US20110206686A1 (published 2011):
Blank lines part the entries; values can stand above or below the binder they belong to.

How the values were obtained:
human IL-23 [1] = molecular target: T1, human IL-23 (human, UniProt Q9NPF7 20-189; P29460 23-328); assay: blocking ELISA (Example 9): purified antibody pre-incubated with endogenous human IL-23 (3.5 ng/ml, from stimulated dendritic cells), binding to plate-coated recombinant human IL-23 receptor detected with biotinylated anti-human IL-12; 1% BSA
T1 construct: Heterodimer of p19 and p40; also called hIL-23; recombinant human IL-23
T1 sequence 1: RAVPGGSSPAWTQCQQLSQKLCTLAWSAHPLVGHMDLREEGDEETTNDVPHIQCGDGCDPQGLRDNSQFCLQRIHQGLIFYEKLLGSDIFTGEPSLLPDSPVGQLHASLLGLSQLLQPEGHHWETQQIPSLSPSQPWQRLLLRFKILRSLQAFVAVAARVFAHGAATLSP
T1 sequence 2: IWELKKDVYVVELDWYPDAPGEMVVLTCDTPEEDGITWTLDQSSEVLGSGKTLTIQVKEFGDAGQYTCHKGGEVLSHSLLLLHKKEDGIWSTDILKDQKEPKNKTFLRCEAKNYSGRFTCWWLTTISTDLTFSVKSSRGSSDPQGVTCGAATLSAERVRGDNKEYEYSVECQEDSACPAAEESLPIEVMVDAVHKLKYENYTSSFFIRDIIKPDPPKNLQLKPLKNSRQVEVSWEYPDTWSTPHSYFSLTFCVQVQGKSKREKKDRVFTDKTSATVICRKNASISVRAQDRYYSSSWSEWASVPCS
Protocol: (§1) Recombinant human IL-23 Receptor (R&D systems 1400-IR-050) was coated onto 96 well plates at a concentration of 1 μg/ml. Endogenous human IL-23 at 3.5 ng/ml final, was pre incubated for 1 hour with a titration of purified antibody material before being added to the pre-coated plates. Detection was performed with biotinylated anti-human IL12 (R&D systems BAF-219) followed by Streptavidin-HRP (GE Healthcare RPN 4401). This neutralisation ELISA used 1% BSA.

human IL-23 [2] = molecular target: T1, human IL-23; assay: blocking ELISA, optimised protocol (Example 6): antibody pre-incubated with constant human IL-23, binding to plate-coated human IL-23R Fc chimera detected with biotinylated anti-human IL-12, OD450; purified antibody
Protocol: Optimised protocol: Plates were coated with human IL23R Fc chimera at […] (phosphate buffered saline). 50 μl/well of this mixture was incubated overnight at 4° C. The plates were then washed three times with Phosphate Buffered Saline with 0.05% Tween 20 (PBST). Plates were blocked with 4% skim milk powder (Fluka BioChemika #70166) PBST 100 μl/well for a minimum of 1 hour at room temperature. The plates were then washed three times with Phosphate Buffered Saline+0.05% Tween 20 (PBST). Various concentrations of antibody were incubated in a separate plate with a constant concentration of IL-23 for 1 hour at room temperature. 50 ul of each mixture were transferred to the assay plate and incubated at RT for 1 hr. They were then washed three times with Phosphate Buffered Saline+0.05% Tween 20 (PBST). Bound IL23 was detected by anti human IL12 Biotin labelled Ab (R&D systems BAF219) diluted to 100 ng/ml in 4% skim milk powder (Fluka BioChemika #70166) PBST. 50 μl/well of the biotinylated antibody was added and incubated at RT for 1 hour. The plates were then washed three times with Phosphate Buffered Saline+0.05% Tween 20 (PBST). SA HRP (GE healthcare RPN4401) was diluted 1/4000 in 4% skim milk powder (Fluka BioChemika #70166) PBS, 50 μl/well was added to the plates. […] The plate was read at OD450 nm using the SOftmaxPRO versamax plate reader.

human IL-23 [3] = molecular target: T1, human IL-23; assay: blocking ELISA (Example 10): purified antibody pre-incubated with endogenous human IL-23 (5 ng/ml), binding to plate-coated recombinant human IL-23 receptor detected with biotinylated anti-human IL-12; 25% human pooled AB serum
Protocol: as §1, with “5” for “3.5”, “incubated” for “incubated for 1 hour”, “mAbs” for “antibody material”, “BAF-219),” for “BAF-219)”, “25% human pooled AB type serum. 8C92H₆, HC1LC1, and A3M0 retain their activity in human serum and inhibit binding of endogenous human IL-23 binding to human IL-23 receptor.” for “1% BSA.”

IC50 (read off the curve) (human IL-23 [1]): ~0.05 µg/mL
B1: murine mAb 8C9 2H6 (antibody, V domains shown)
VH: QVQLQQSGAELARPGTSVKLSCKASGYTFTSYGITWVKQRTGQGLEWIGENYPRSGNTYYNEKFKGKATLTADKSSSTAYMELRSLTSEDSAVYFCARCEFISTVVAPYYYALDYWGQGTSVTVSS
VL: DIVLTQSPASLAVSLGQKATISCKASKKVTIFGSISALHWYQQKPGQPPKLIYNGAKLESGVSARFSDSGSQNRSPFGNQLSFTLTIDPVEADDAATYYCLQNKEVPYTFGGGTKLEIK
notes: Murine hybridoma antibody; also called 8C92H6 (mouse parental); murine 8C92H6 mAb

IC50 (read off the curve) (human IL-23 [2]): ~0.9 nM
B2: A3N2 (antibody, human IgG1, kappa, V domains shown)
VH: QVQLVQSGAEVKKPGSSVKVSCKASGYTFTSYGITWVRQAPGQGLEWMGENYPRSGNTYYNEKFKGRVTITADKSTSTAYMELSSLRSEDTAVYYCARSEFISTVVAPYYYALDYWGQGTLVTVSS
VL: DIVMTQTPLSLSVTPGQPASISCKASKKVTIFGSISALHWYLQKPGQPPQLIYNGAKLESGVSDRFSDSGSGTDFTLKISRVEAEDVGVYYCLQNKEVPYTFGGGTKVEIKR

IC50 (read off the curve) (human IL-23 [3]): ~0.02 µg/mL
B3: A3M0 (antibody, human IgG1, kappa, V domains shown)
VH: B2 VH
VL: DIVMTQSPDSLAVSLGERATINCKASKKVTIFGSISALHWYQQKPGQPPKLIYNGAKLESGVPDRFSGSGSGTDFTLTISSLQAEDVAVYYCLQNKEVPYTFGGGTKVEIKR
notes: Humanised, human gamma1 and kappa constant regions; also called A3M0 (humanised)
